# Results published in patent US6602687B1, “DNA encoding human ciliary neurotrophic factor and method for producing the protein encoded thereby” (Regeneron Pharmaceuticals, Inc., priority 1989, dated 2003).
# Like-named read-outs stand apart in the source and are kept apart here.
# How the values were obtained:
# [1] = test system: E8 chick ciliary ganglion neurons; assay: Survival of dissociated E8 chick ciliary ganglion neurons; type: cell-based; details: saturating levels of recombinant human CNTF; 48 hr
# Procedure, shortened: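 In one protocol, dissociated E8 chick ciliary ganglion cells (2,000 per well, HEBM with 20% horse serum) were held 24 h at 37 °C, fixed, and surviving neurons counted by phase contrast. In another, trypsinized, pre-plating-enriched neurons on polyornithine-laminin (8,000-10,000 per dish, F14 with 5% horse serum) were scored as percentage process-bearing at 48 h, in triplicate.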
# [2] = test system: chick embryonic spinal motorneurons; assay: Survival of chick embryonic spinal motorneurons in culture; type: cell-based
# Procedure: Motorneuron columns were dissected under a stereomicroscope from the lumbar part of the spinal cord of chick embryos on the 6th day of embryonic development and stored in cold calcium and magnesium-free Hanks balanced salt solution supplemented with glucose (4 g/l) (HBSS). The tissues were washed with HBSS and treated with 0.03% trypsin in HBSS at 37° C. for 20 min with gentle shaking, rinsed with cold HBSS and triturated mildly in 3 steps of 8-passage agitation in 1 ml of cold 0.1% soybean trypsin inhibitor (Sigma) in HBSS through a fire-polished siliconized Pasteur pipette. Each supernatant cell suspension was filtered through 50 μm-Nylon mesh, pooled and layered onto 4 ml of cold 6.8% metrizamide (Fluka) in HBSS-25 mM HEPES (pH7.4) in a 12 ml-siliconized conical glass tube. The tube was centrifuged at 400 g for 15 min at 4° C. and the intermediate layer (0.5 ml) was collected into another siliconized tube containing 6.5 ml of cold culture medium (a mixture of glucose (4 g/l)-supplemented Leibovitz's L-15 medium (Gibco), 0.15 M sodium bicarbonate, heat-inactivated and filtered horse serum and penicillin G (10^5 units/ml) at the ratio of 75:15:10:0.1, freshly prepared and buffered with 5% CO2.) After centrifugation at 100×g for 7 min at 4° C., the supernatant was removed and the cells were gently resuspended in culture medium and plated in Greiner 4-well culture dishes (well diameter, 10 mm; C. A. Greiner und Sohne GmbH, Nurtingen, West Germany) at 1000-2000 cells/well. The dishes had been precoated with poly-DL-ornithine (Sigma, 0.5 mg in 0.15 M sodium borate buffer (pH 8.3) overnight at 4° C., rinsed twice with phosphate-buffered saline (PBS) and subsequently coated with laminin (Gibco; 10 μg/ml in the serum-depleted culture medium) and placed in a 5% CO2-incubator until cell plating (5-6 hrs). Cells were incubated at 37° C. in a humidified 5% CO2- and 95% air-incubator. Samples were added one hr after plating and the culture medium changed after 24 hrs and 72 hrs. The initial cell numbers were counted 3 hrs after plating.
# In some experiments motor neurons were retrogradely labeled with a fluorescent dye in vivo before cell preparation (U. Dohrman et al., 1986, Dev. Biol. 118:209-221) to identify the motor neuron cell population. A small hole was made in the shell of eggs which had been incubated for 5 days. Small pieces of rhodamine isothiocyanate crystals (Sigma) were inserted at two or three places into each hind limb thigh and the egg hole was sealed with a cellophane tape. The eggs were incubated for another 24 hrs. Some of the operated embryos were then processed for frozen sections after formaldehyde fixation. […] The other embryos were used for cell preparation using the method described above (18.1.1). After 5 hrs in culture cells were rinsed with warm HBSS, fixed with 4% formaldehyde in PBS at room temperature for 20 min, rinsed with PBS and then mounted in glycerol-PBS (1:1) with glass coverslips. Of the total cells approximately 83% were labeled and identified as motorneurons (FIG. 42.) Most of these labeled motorneurons were large cells and the rest were intermediate-size cells. No small cells were labeled. On the other hand, in experiments in which cells were not labeled with a fluorescent dye about 70% of the total cells were large phase-bright cells with round cell somas, about 20% were intermediate-size neurons (most of them may be motorneurons) and about 10% were small immature neurons (they have neuron-like processes with growth cones but have phase-dark semi-flat cell somas). Non-neuronal cells were either not present or accounted for less than 2%. Taken together, one may conclude that at least 83% of the cells are motorneurons while the remainder consists of non-labeled motorneurons, a small number of unidentified intermediate-size neurons and about 10% immature small neurons. […]
molecule,measurement,setting,value
"CNTF: ciliary neurotrophic factor; recombinant rat CNTF in Sections 10, 15, 17, purified rat sciatic nerve CNTF in Section 11; see endpoint conditions (protein, UniProt P20294 1-200, looked up) Ciliary neurotrophic factor: MAFAEQTPLTLHRRDLCSRSIWLARKIRSDLTALMESYVKHQGLNKNINLDSVDGVPVASTDRWSEMTEAERLQENLQAYRTFQGMLTKLLEDQRVHFTPTEGDFHQAIHTLMLQVSAFAYQLEELMVLLEQKIPENEADGMPATVGDGGLFEKKLWGLKVLQELSQWTVRSIHDLRVISSHQMGISALESHYGAKDKQM",neurons surviving and elaborating long neurites,[1],60-70%
same,concentration at which the highest survival effect was obtained,[2]; 3 days in culture,1 ng/mL
same,highest survival effect of the concentration-response curve,"[2]; 3 days in culture, CNTF = recombinant rat",64%
same,Motoneuron survival (%),"[2]; after 3 days in culture, mean ± SEM (n = 4), IGF-I 1 μg/ml, Basic FGF 30 ng/ml, CNTF 1.5 ng/ml",60.7 ± 5.8%
same,Survival,"[2]; after 3 days in culture, one concentration per molecule, Table VI, CNTF rat, rec.",+ + +
same,EC50,"[2]; motorneuron survival, 3 days in culture",0.023 ng/mL
same,EC50 (the concentration required for 50% survival),"[2]; recombinant rat CNTF, day 3",about 20 pg/ml
same,EC50,"[2]; recombinant rat CNTF, day 3, read-out: EC50 (the concentration required for 50% survival)",~1 pM
